Molecular target: Human CD64 (FcγRI), His-tagged (human) (UniProt P12314)
Assay: SPR single cycle kinetics, 1:1 model, His-CD64 captured, antibody as analyte

Sequence of Human CD64 (FcγRI), His-tagged (human) (P12314 16-288 limits assumed): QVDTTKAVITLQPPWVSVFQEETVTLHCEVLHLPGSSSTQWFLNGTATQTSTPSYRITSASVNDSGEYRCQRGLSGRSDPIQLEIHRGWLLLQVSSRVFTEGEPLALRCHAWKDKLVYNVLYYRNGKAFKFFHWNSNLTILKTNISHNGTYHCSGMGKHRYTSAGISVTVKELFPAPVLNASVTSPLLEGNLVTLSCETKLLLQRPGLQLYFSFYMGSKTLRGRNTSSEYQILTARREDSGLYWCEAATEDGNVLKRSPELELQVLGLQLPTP

Substance | Kd [nM] | koff [s⁻¹] | kon [M⁻¹ s⁻¹]
Irrelevant IgG1 (antibody) | 2.61 | 0.00083 | 319000
Irrelevant IgG4 (antibody) | 5.97 | 0.00249 | 417000

Reference: patent US20230059181A1
